Assay results from paper PMC4017264 (Molecular Cell, 2014).
Non-standard residues stand in square brackets, D forms with d. No end group written: not given here. *: point of attachment. FITC = O=C1OC2(c3ccc(O)cc3Oc3cc(O)ccc32)c2ccc(NC(=S)*)cc21; pY = N[C@@H](Cc1ccc(OP(=O)(O)O)cc1)C(=O)O; Ahx = NCCCCCC(=O)O

How the values were obtained:
[1] = test system: endogenous LUBAC (HOIP, HOIL-1, SHARPIN); assay: coimmunoprecipitation of endogenous LUBAC components with HA-tagged OTULIN; format: cell-based; conditions: HA-OTULIN variants in HEK293T cells, anti-HA IP, western blot
Protocol: Transfected HEK293T or U2OS and NOD2 cells were lysed in the presence of protease and phosphatase inhibitors. Clarified lysates were incubated overnight with anti-V5 and anti-HA-agarose resin. […]
siOTULIN: […], siMM […]
Immunoprecipitation of HOIP-V5 and HA-OTULIN
HEK293T or U2OS/NOD2 cells were transfected as indicated. The cells were lysed in IP buffer buffer (25 mM HEPES pH 7.4, 150 mM KCl, 2 mM MgCl2, 1 mM EGTA, 0.5% (v/v) Triton X-100) supplemented with 5 mM NEM (Sigma-Aldrich), cOmplete protease inhibitor cocktail (Roche) and PhosSTOP
(Roche). After 30 minutes on ice, the lysates were cleared by centrifugation and incubated overnight at 4 °C with anti-V5-agarose resin or anti-HA-agarose resin. The beads were washed four times in ice-cold IP buffer and the precipitated material was eluted with 0.2 M glycine, pH 2.5. […]

[2] = test system: HOIP PUB domain (15N HOIP 1-184); assay: NMR binding (chemical shift perturbation) to 15N-labeled HOIP PUB domain; parameters: species or system Human; conditions: 15N BEST-TROSY NMR, 100 μM 15N HOIP 1-184, 20 mM phosphate pH 6.8, 50 mM NaCl, 2 mM DTT, 298K
Protocol: Standard triple-resonance experiments (HNCA, HN(CO)CA, HNCACB, CBCA(CO)NH, and HBHA(CO)NH) were acquired for the assignment of HOIP resonances. Constant time ^13C and ^13C-HSQC were acquired for the methyl and aromatic regions. In addition, (HB)CB(CGCD)HD and (HB)CB(CGCDCE)HE experiments coupled the Cβ of tyrosine resonances to the Hδ and Hε positions of the tyrosine ring, respectively.
(§1) Fluorescence polarization binding assays
(§2) 10 µl of 100 nM FITC-Ahx peptides of either OTULIN (49-67) or p97 (797-806) were aliquoted into a 384-well low volume plate (Corning). Serial dilutions of HOIP PUB into FP assay buffer (20 mM Tris pH 7.4, 100 mM NaCl, 1 mM DTT) were prepared and 10 µl of this was aliquoted to FITC-Ahx peptide-containing wells. Fluorescence polarization was recorded on a PheraStar plate reader (BMG Labtech) using an optics module with $ex = 485 nm and $em = 520 nm. To derive binding constants (KD), polarization values were fitted to a one-site binding model using Graphpad Prism 5.
Nuclear Magnetic Resonance Spectroscopy
Uniformly labeled 15N or 13C, 15N samples of HOIP were prepared following growth in 2M9 medium supplemented with either 15N NH4Cl or 13C glucose.
Proteins were purified as described above and all samples were exchanged into NMR sample buffer (20 mM Na2HPO4/NaH2PO4 pH 6.8, 50 mM NaCl, 2 mM DTT). Lyophilized OTULIN and p97 PIM peptides were reconstituted in NMR sample buffer and the pH adjusted to pH 6.8 prior to use. NMR data were acquired at 298K on Bruker Avance III 600 MHz and Avance2+ 700
MHz spectrometers, equipped with cryogenic triple resonance TCI probes.
Standard triple resonance experiments (HNCA, HN(CO)CA, HNCACB, CBCA(CO)NH, HBHA(CO)NH) were acquired for the assignment of backbone
HOIP resonances. In addition, constant-time (ct) 13C and 13C-HSQC were acquired for the methyl and aromatic regions. For assignment of the H",H# resonances of HOIP tyrosines, (HB)CB(CGCD)HD and (HB)CB(CGCDCE)HE spectra were acquired, which coupled the C$ position of the tyrosine resonances to the H"/H# position of the tyrosine ring respectively. […]

[3] = target: T1, HOIP PUB domain (HOIP 1-184) (Homo sapiens, UniProt Q96EP0); assay: fluorescence polarization binding of FITC-Ahx peptides to HOIP PUB domain
T1 construct: PUB domains from HOIP (aa 1–184, red); His6 (3C-cleavable, pOPINB) (N, cleaved yes); made in house; host or cells: E. coli Rosetta2 (DE3) pLacI
T1 sequence (Q96EP0 1-184): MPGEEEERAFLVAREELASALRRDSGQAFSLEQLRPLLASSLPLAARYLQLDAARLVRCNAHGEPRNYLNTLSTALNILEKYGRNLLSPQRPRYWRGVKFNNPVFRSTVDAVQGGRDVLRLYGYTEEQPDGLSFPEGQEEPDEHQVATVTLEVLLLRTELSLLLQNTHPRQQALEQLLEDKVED
Protocol: Serially diluted PUB domains and HOIP variants were mixed with an equal volume of 100 nM FITC-Ahx-labeled peptides of OTULIN and p97. Fluorescence polarization was recorded on a PheraStar plate reader (BMG LABTECH) and fitted to a one-site binding model with GraphPad Prism 5.
as §1
as §2, with “5. […]” for “5.”

[4] = target: T2, PNGase PUB domain R55A (UniProt Q96IV0 11-109, Arg55 was mutated to Ala); assay: fluorescence polarisation; serially diluted PUB domains and HOIP variants mixed with an equal volume of 100 nM FITC-Ahx-labeled peptide; one-site binding model; triplicate; conditions: both partners purified
T2 construct: PNGase PUB domain with Arg55 mutated to Ala; also called PNGase mutant; Arg55 mutated to Ala
T2 sequence (looked up): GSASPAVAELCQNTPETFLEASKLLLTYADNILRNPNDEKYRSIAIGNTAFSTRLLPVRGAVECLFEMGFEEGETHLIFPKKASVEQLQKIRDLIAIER

[5] = target: T3, HOIP extended PUB domain (aa 1–184) (UniProt Q96EP0 1-184); assay: as above; conditions: both partners purified
T3 construct: 15N- or 13C,15N-labelled for NMR; Construct details are in the Supplemental Experimental Procedures; also called HOIP PUB domain
T3 sequence (looked up): T1 sequence (Q96EP0 1-184)

[6] = target: T4, HOIP extended PUB domain (aa 1–184) (UniProt Q96EP0 1-184); assay: FP
T4 chain: T1 sequence (Q96EP0 1-184)

OTULIN Y56A: HA-tagged full-length OTULIN with PIM point mutation Y56A
coimmunoprecipitation of endogenous LUBAC components (in words) [1]: abrogated binding

OTULIN 49-67: unlabeled OTULIN PIM peptide (aa 49–67) used in NMR and crystallization (AEHEEDMYRAADEIEKEKE)
binding / chemical shift perturbations of HOIP PUB domain (in words) [2]: CSPs and loss of a large number of resonances, a feature common to slow exchange

OTULIN Y56E: HA-tagged full-length OTULIN with PIM point mutation Y56E
coimmunoprecipitation of endogenous LUBAC components (in words) [1]: abrogated binding

FITC-Ahx-OTULIN 49-63 pY56: Tyr56-phosphorylated FITC-Ahx-labeled OTULIN peptide (legend: 49–67) ({FITC-Ahx}-AEHEEDM[pY]RAADEIEKEKE)
binding to HOIP PUB domain (in words) [3]: unable to bind HOIP

OTULIN Y56F: HA-tagged full-length OTULIN with PIM point mutation Y56F
coimmunoprecipitation of endogenous LUBAC components (in words) [1]: abrogated binding

OTULIN D54A: HA-tagged full-length OTULIN with PIM point mutation D54A
coimmunoprecipitation of endogenous LUBAC components (in words) [1]: Residual binding was still observed

B1: fluorescently labeled OTULIN PIM peptide (aa 49–67) M55L (peptide, UniProt Q96BN8 49-67, looked up)
peptide: {FITC-Ahx}-AEHEEDLYRAADEIEKEKE
notes: OTULIN, residues 49-67, Met55 exchanged to Leu (as in p97); also called OTULIN M55L PIM peptide
Kd [4]: 5 µM | Kd [5]: 0.37 µM

B2: OTU domain: OTULIN catalytic (OTU) domain (aa 80–352) (protein)
chain: LSVAPEMDIMDYCKKEWRGNTQKATCMKMGYEEVSQKFTSIRRVRGDNYCALRATLFQAMSQAVGLPPWLQDPELMLLPEKLISKYNWIKQWKLGLKFDGKNEDLVDKIKESLTLLRKKWAGLAEMRTAEARQIACDELFTNEAEEYSLYEAVKFLMLNRAIELYNDKEKGKEVPFFSVLLFARDTSNDPGQLLRNHLNQVGHTGGLEQVEMFLLAYAVRHTIQVYRLSKYNTEEFITVYPTDPPKDWPVVTLIAEDDRHYNIPVRVCEETSL
modifications: left off: His6 (from the vector pOPINB), end not stated, state not stated
binding / chemical shift perturbations of HOIP PUB domain (in words) [2]: did not interact with the HOIP PUB domain

B3: fluorescently labeled OTULIN peptide (aa 49–67) D54A (peptide)
peptide: {FITC-Ahx}-AEHEEAMYRAADEIEKEKE
Kd [6]: 11.2 µM

B4: fluorescently labeled OTULIN peptide (aa 49–67) Y56F (peptide)
peptide: AEHEEDMFRAADEIEKEKE
modifications: not fully specified (N-terminus)
Kd [6]: 64.5 µM

B5: fluorescently labeled OTULIN peptide (aa 49–67) Y56W (peptide)
peptide: {FITC-Ahx}-AEHEEDMWRAADEIEKEKE
Kd [6]: 21.3 µM
